Data on two substances can be found in article PMC3669356.

Test [1] deals with rat GSTM1, purified recombinant (rat). Briefly: SPR; BIAcore; GSTM1 or GSTP1 immobilised by amine coupling on CM5 chips; AMPK 221WT injected (10 nM, or a concentration series) at 30 µl/min; 10 mM HEPES pH 7.4, 100 mM NaCl, 50 μM EDTA, 0.005% Surfactant P20; Langmuir 1:1 fit.
In test [2] the target is Schistosoma japonicum GST (GST-Sj), purified recombinant (Schistosoma japonicum) [GST: P08515]. Briefly: SPR.

For orientation: Kd means the constant that tells how readily two partners part at equilibrium. For orientation: koff means a measure of how fast the partners let go of each other. One may read the kon as a measure of how fast the partners come together. As to “AMPK α2β2γ1 (221WT) (from UniProt Q09137 1-552; Q9QZH4 1-271; P80385 1-330) (complex)”, in test [1], the Kd came to 5 nM, the off-rate constant (koff) turned out to be 0.0016 s⁻¹ and the kon worked out at 310000 M⁻¹ s⁻¹. For the same substance, the equilibrium response in test [2] came out at 203 RU.

As for “AMPK α2T172Dβ2γ1 mutant (221TD) (from UniProt Q09137 1-552; Q9QZH4 1-271; P80385 1-330) (complex)”, the equilibrium response in test [2] came to 121 RU.
